{"source": "patent US20120276102A1", "about": "(Pfizer, published 2012)", "binders": {"B1": {"name": "18A5 parent scFv (scFv)", "scFv": "QVQLQESGPGLVKTSETLSLTCAVSGYSISSGYYWGWIRQPPGKGLEWIGSISHTGNTYYNPPLKSRVTISVDTSKNQFSLKLSSVTAADTAVYYCARGGGISRPEYWGKGTLVTVSSGGGGSGGGGSGGGGSALSSELTQDPPVSVALGQTVTLTCQGDSLRTYYASWYQQKSGQAPILLLYGKHKRPSGIPDRFSGSTSGDTASLTITGAQAEDEADYYCNSRDSSGNPHVLFGGGTQLTVL", "notes": "scFv format of parental 18A5 (not germlined); different molecule from the 18A5 IgG coated on the plate; also called parental 18A5 scFv; scFv parental clone 18A5"}, "B2": {"name": "AbX (antibody, human IgG1)", "VH": "not shown", "VL": "SSELTQDPAVSVALGQTVRITCQGDSLRTYYASWYQQKPGQAPVLVIYGKHKRPSGIPDRFSGSSSGNTASLTITGAQAEDEADYYCVARSNKGNPHVLFGGGTQLTVLGQPKAAPSVTLFPPSSEELQANKATLVCLISDFYPGAVTVAWKADSSPVKAGVETTTPSKQSNNKYAASSYLSLTPEQWKSHRSYSCQVTHEGSTVEKTVAPTECS", "notes": "Same variable domains as AbT; residue limits derived as for m29; also called VHPDM/VL9; copies: 2 + 2"}}, "key": {"[1]": {"biological_target": "T1, murine IL-21R extracellular domain His-Flag fusion protein (murine, UniProt Q9JHX3 20-237)", "T1 construct": "Biotinylated in the ELISAs; also called mIL-21R-H/F; murine IL-21R-H/F", "experiment": "competition ELISA: scFv mixed with biotinylated murine IL-21R-H/F, added to plate-bound 18A5 IgG (competitor); captured receptor detected with HRP-streptavidin, A450", "procedure": "Blocked plates were washed 3× with PBS, and 50 μl/well of scFv/IL-21R mixtures were transferred to the appropriate plates and incubated for 1 hr at RT. Plates were washed 5× with PBS prior to the addition of a 1:6000 dilution of horseradish peroxidase-conjugated streptavidin (Southern Biotech, Birmingham, Ala.) secondary antibody to detect bound biotinylated mIL-21R-H/F. Plates were then incubated for 1 hr at RT and washed 7× with PBS. Signal was developed using 3,3′,5,5′-tetramethylbenzidine (TMB), the reaction stopped with H₂SO₄, and the absorbance read at 450 nm on an ENVISION™ plate reader (Perkin Elmer)."}, "[2]": {"biological_target": "T2, human complement component C1q (human, UniProt P02745 23-245; P02746 28-253; P02747 29-245)", "T2 construct": "Native C1q in diluted human serum", "T2 sequence (P02745 23-245, chain 1 of 3)": "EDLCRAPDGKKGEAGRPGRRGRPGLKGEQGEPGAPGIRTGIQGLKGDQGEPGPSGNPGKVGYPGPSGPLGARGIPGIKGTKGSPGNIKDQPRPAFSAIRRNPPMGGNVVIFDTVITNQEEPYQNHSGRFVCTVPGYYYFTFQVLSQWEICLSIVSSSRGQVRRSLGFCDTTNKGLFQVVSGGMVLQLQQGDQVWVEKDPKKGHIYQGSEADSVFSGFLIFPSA", "T2 sequence (P02746 28-253, chain 2 of 3)": "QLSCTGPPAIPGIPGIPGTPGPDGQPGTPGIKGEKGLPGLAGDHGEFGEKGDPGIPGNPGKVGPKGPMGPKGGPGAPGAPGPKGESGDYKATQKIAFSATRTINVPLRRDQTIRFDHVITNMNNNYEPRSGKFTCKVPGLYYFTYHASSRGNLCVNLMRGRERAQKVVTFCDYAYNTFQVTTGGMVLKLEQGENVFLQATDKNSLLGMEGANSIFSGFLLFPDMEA", "T2 sequence (P02747 29-245, chain 3 of 3)": "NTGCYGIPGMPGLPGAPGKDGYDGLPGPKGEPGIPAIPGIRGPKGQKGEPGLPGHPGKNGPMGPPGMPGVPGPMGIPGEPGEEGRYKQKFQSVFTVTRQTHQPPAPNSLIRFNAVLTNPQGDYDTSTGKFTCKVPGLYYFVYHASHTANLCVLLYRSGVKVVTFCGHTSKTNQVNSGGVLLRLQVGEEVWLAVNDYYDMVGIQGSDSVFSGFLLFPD", "experiment": "C1q ELISA, antibody coated at 5 µg/ml, human serum 1:50", "procedure": "In order to determine whether cell-surface binding by anti-IL-21R antibodies is likely to lead to complement-dependent cytotoxicity (CDC), the antibodies were tested for their ability to bind to the complement component C1q in an ELISA. […] Diluted antibodies (100 μl) were coated onto a COSTAR® high-binding ELISA plate (Corning Life Sciences, Lowell, Mass.) overnight at 4° C. Plates were washed 3× with PBS/Tween-20 and blocked with 200 μl of blocking buffer (0.1 M NaPO₄, 0.1 M NaCl, 0.1% gelatin, 0.01% Tween) for 1 hr at RT. Human serum previously determined to contain C1q (Quidel, San Diego, Calif.) was diluted 1:50 in PBS. After 1 hr of blocking, plates were washed and 100 μl of diluted serum was added to each well and incubated for 2 hr at RT on a shaker. Following three washes, 100 μl A of 0.1 μg/ml chicken polyclonal anti-human C1q antibody (AbCam, Cambridge, Mass.) was added to each well and incubated for 1 hr at RT. Plates were again washed and incubated with 100 μA of a rabbit polyclonal antibody to chicken Ig-Y—HRP diluted 1:4000 (AbCam) for 1 hr at RT. Plates were washed and developed with TMB for 5 min, followed by 50 μA of 1 M H₂SO₄ to stop the reaction, and then read at 450 nm."}}}
{"binder": "B1", "values": [{"measurement": "binding result", "setting": "[1]", "result": "binds"}]}
{"binder": "B2", "values": [{"measurement": "binding result", "setting": "[2]", "result": "no binding"}]}
